The data set can be described thus: protein stability index of a GFP-peptide fusion (GPS, HEK-293T) (PSI 1-6); higher = more stable. Particulars: c terminus: a fixed tail appended.

± gives the standard deviation.
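Note: 24-mer peptide tiles fused after GFP, lentivirally expressed, FACS-sorted into six equal bins by GFP/DsRed ratio, decoded by Illumina sequencing, PSI is the read-weighted mean bin number.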

As for VLMIAIQLISRMEYVHSKNLIYRD [CSNK1G3], the protein stability index reads like this: (treatment: DMSO) 2.86 ± 0.13; (treatment: MLN4924 1 uM, 8 h) 2.72 ± 0.44.

In the case of LDRFLSLEPVKKSRLQLLGATCMF [CCND1], the protein stability index reads like this: (treatment: DMSO) 2.42 ± 0.36; (treatment: MLN4924 1 uM, 8 h) 2.39 ± 0.14.

In turn, RVFKARIYTNRYETNEEDKTLQEI [FBXO39] gave a protein stability index (treatment: DMSO) of 2.98 ± 0.34 and a protein stability index (treatment: MLN4924 1 uM, 8 h) of 3.43 ± 0.38.

Take RLVSSPCCIVTSTYGWTANMERIM [HSP90AB1]: the protein stability index (treatment: DMSO) came out at 2.86 ± 0.68 and the protein stability index (treatment: MLN4924 1 uM, 8 h) is 2.35 ± 0.33.

In turn, WLDNPERWNKVKMVVSREEVELAY [SEPHS2] returned a protein stability index (treatment: DMSO) of 2.87 ± 0.31 and a protein stability index (treatment: MLN4924 1 uM, 8 h) of 2.46 ± 0.31.

MCRVDLRGHMPEWYTKSFGHLCAA [DLC1]: the protein stability index came out at 2.23 ± 0.43 (treatment: DMSO) and 2.1 ± 0.53 (treatment: MLN4924 1 uM, 8 h).

Regarding GSVAVVEAECEKSSATTYFWYREA [SLC6A17], the protein stability index is, setting by setting: (treatment: DMSO) 2.81 ± 0.48; (treatment: MLN4924 1 uM, 8 h) 2.62 ± 0.35.

Take VAMLGVFLVSAVAHEYIFCFVLGF [SOAT2]: the protein stability index stood at 3.21 ± 0.36 (treatment: DMSO) and 3.14 ± 0.5 (treatment: MLN4924 1 uM, 8 h).

Take LSWYRGRRPRTAFTQNQIEVLENV [HESX1]: the protein stability index reads like this: (treatment: DMSO) 3.03 ± 0.094; (treatment: MLN4924 1 uM, 8 h) 3 ± 0.28.

On to SVAVPPPPPNRMYPPPPPALPSSA [WASL], for which the protein stability index was found to be 4.5 ± 0.18 (treatment: DMSO) and 4.53 ± 0.3 (treatment: MLN4924 1 uM, 8 h).

In the case of LMLGKTSISDLSEHVFDLILELYN [PDS5B], the protein stability index runs as follows: (treatment: DMSO) 2.59 ± 0.33; (treatment: MLN4924 1 uM, 8 h) 2.44 ± 0.47.

RLDYLNLKGARLTVEQGCQILDSL [FBXO39] yielded a protein stability index (treatment: DMSO) of 3.25 ± 0.088 and a protein stability index (treatment: MLN4924 1 uM, 8 h) of 3.54 ± 0.22.

As for MKCQSYCEPPSYRPMHHEDFKEDL [CDC25A], the protein stability index reads like this: (treatment: DMSO) 3.77 ± 0.16; (treatment: MLN4924 1 uM, 8 h) 4.02 ± 0.23.

In the case of NDSDHQSSTSPLMEGTPTIKSKKK [VPS39], the protein stability index runs as follows: (treatment: DMSO) 5.45 ± 0.26; (treatment: MLN4924 1 uM, 8 h) 5.57 ± 0.25.

Turning to RNSKASAYCLDQGAEDGDRAILYP [GALNT9], the protein stability index by setting is: (treatment: DMSO) 4.32 ± 0.3; (treatment: MLN4924 1 uM, 8 h) 4.4 ± 0.2.

Turning to ACDLQPCPTEPPDDSCQDQPGTNC [ADAMTSL2], the protein stability index reads like this: (treatment: DMSO) 5.49 ± 0.34; (treatment: MLN4924 1 uM, 8 h) 5.51 ± 0.39.

For the sequence DFVNLMAYDFHGSWEKVTGHNSPL [CHIT1], the protein stability index was 1.9 ± 0.23 (treatment: DMSO) and 2.06 ± 0.19 (treatment: MLN4924 1 uM, 8 h).

Take PHKGLNLHPLLSGRLGRWLRSTRF [PCDHGC5]: the protein stability index (treatment: DMSO) worked out at 2.35 ± 0.23 and the protein stability index (treatment: MLN4924 1 uM, 8 h) came to 2.13 ± 0.28.

As for LHESYCMDTSHQPLLPAPPKTPMD [LYSMD4], the protein stability index turned out to be 4.65 ± 0.27 (treatment: DMSO) and 4.59 ± 0.11 (treatment: MLN4924 1 uM, 8 h).

Take NSISSDKEATVPCTEILTEKKDTI [MIA2]: the protein stability index reads like this: (treatment: DMSO) 5.29 ± 0.28; (treatment: MLN4924 1 uM, 8 h) 5.06 ± 0.21.

Turning to RRGELRHITKLKPWSLFDVLVEKY [SRPK2], the protein stability index was 2.4 ± 0.53 (treatment: DMSO) and 2.12 ± 0.057 (treatment: MLN4924 1 uM, 8 h).

With NHDSHMAKERAHSTASHSSSNSED [PDZK1], the protein stability index was 5.59 ± 0.17 (treatment: DMSO) and 5.61 ± 0.23 (treatment: MLN4924 1 uM, 8 h).

In the case of TCSFNPGVIVANMTEWKHQRITKQ [GLT8D2], the protein stability index was found to be 3.12 ± 0.11 (treatment: DMSO) and 3.06 ± 0.15 (treatment: MLN4924 1 uM, 8 h).

For the sequence SGFLKEMACPYSVLISGDIKDRLK [FAM98B], the protein stability index is, setting by setting: (treatment: DMSO) 2.38 ± 0.49; (treatment: MLN4924 1 uM, 8 h) 2.52 ± 0.18.

As for PKGSKGKEKDSPFKPKLYKGDRGL [RBBP5], the protein stability index (treatment: DMSO) came out at 3.86 ± 0.89 and the protein stability index (treatment: MLN4924 1 uM, 8 h) is 4.34 ± 0.46.

WALGVCNNSWIRKNSTMVNSEDIF [TRIM43]: the protein stability index by setting is: (treatment: DMSO) 2.03 ± 0.52; (treatment: MLN4924 1 uM, 8 h) 2.12 ± 0.31.

For the sequence ITPQGVAMRAGVLADDHLIEVNGE [PDZK1], the protein stability index reads like this: (treatment: DMSO) 4.72 ± 0.095; (treatment: MLN4924 1 uM, 8 h) 4.78 ± 0.22.

For the sequence EEKVRDLLWAKFTNSDTPTSFNHM [TOR1AIP2], the protein stability index is 3.08 ± 0.12 (treatment: DMSO) and 3.19 ± 0.13 (treatment: MLN4924 1 uM, 8 h).

Regarding GCLLPDGSRMMAVAALVVNFSQPV [NLN], the protein stability index was 3.04 ± 0.46 (treatment: DMSO) and 2.75 ± 0.81 (treatment: MLN4924 1 uM, 8 h).

As for QGGSLPSEEKGHPQEESEESNVSM [CHGB], the protein stability index is 5.59 ± 0.24 (treatment: DMSO) and 5.53 ± 0.25 (treatment: MLN4924 1 uM, 8 h).

On to LSFYNVTDRSHIYTFTDTFTEKLW [TRIM39], for which the protein stability index turned out to be 2.52 ± 0.31 (treatment: DMSO) and 2.3 ± 0.32 (treatment: MLN4924 1 uM, 8 h).

Sequence HCTGNEATLAACTSNGWGVTDCKH [LOXL2] registered a protein stability index (treatment: DMSO) of 3.98 ± 0.24 and a protein stability index (treatment: MLN4924 1 uM, 8 h) of 4.21 ± 0.28.

On to LWWDPIQRLLFSGASDNSIIMWDI [WDFY1], for which the protein stability index was 2.65 ± 0.54 (treatment: DMSO) and 2.69 ± 0.83 (treatment: MLN4924 1 uM, 8 h).

In the case of LLGWGYYLIMLPFRFTYYTILDIF [FAF2], the protein stability index (treatment: DMSO) was 4.59 ± 0.36 and the protein stability index (treatment: MLN4924 1 uM, 8 h) was 4.7 ± 0.17.

FSTRALVLSILHATLPGIFMLLLI [SOAT2] registered a protein stability index (treatment: DMSO) of 3.16 ± 0.35 and a protein stability index (treatment: MLN4924 1 uM, 8 h) of 3.37 ± 0.52.

NQSFNIVDIKPANMEELTEVITAA [PPP2R2B] returned a protein stability index (treatment: DMSO) of 4.18 ± 0.26 and a protein stability index (treatment: MLN4924 1 uM, 8 h) of 4.26 ± 0.16.

These data come from the supplement of paper PMC10567573.
